From patent US20230192860A1 (Bristol-Myers Squibb, published 2023)

What was measured:
[1] = molecular target: T1, monovalent hVISTA-ECD (amino acids 32-193 of SEQ ID NO: 1 with a 7xHis tail) (human, UniProt Q9H7M9 33-193); test: SPR 37C, Ab on Protein A, hVISTA-ECD 50-5 nM, pH 6.0, average
T1 construct: analyte of the SPR assays; also called huVISTA-His; human VISTA-ECD
Experimental: (§1) Binding of several preparations of each of the ‘029 progeny clones and of the parent ‘029 antibodies, formatted as IgG1.3 antibodies, to human VISTA at pH 6.0 and 7.4 was measured by Surface plasmon resonance (SPR). SPR analysis was performed to measure koff and KD binding affinity measurements for VISTA Abs at acidic and neutral pHs using a Biacore® T100 instrument (GE Healthcare). […] Antibodies were diluted to 25 nM in PBST pH 7.4, and were captured across active biosensor flow cells at 5 ul/min for 60 seconds. A concentration series of 50 - 5 nM monovalent hVISTA-ECD (SEQ ID NO: 325) was prepared in pH 7.4 and 6.0 running buffers, and was injected over the captured antibodies at 40 ul/min to measure association and dissociation. Two 15 second injections of 10 mM glycine pH 1.5 were used to regenerate the Protein A capture surface between assay cycles. Rate constants ka (kₒₙ) and kd (koff) were derived from reference flow cell and 0 nM blank-subtracted sensorgrams, and were fit to a 1:1 binding model in Biacore® T200 Evaluation Software v.2.0. The affinity constant, KD was calculated as the ratio of rate constants koff/kₒₙ for each VISTA antibody.

[2] = molecular target: T1, monovalent hVISTA-ECD (amino acids …); test: SPR 37C, Ab on Protein A, hVISTA-ECD 50-5 nM, pH 7.4, average
Experimental: as §1

[3] = molecular target: T2, monovalent hVISTA-ECD with polyhistidine tail (SEQ ID NO: 325) (human, UniProt Q9H7M9 33-193); test: SPR, mAb captured on Protein A chip, hVISTA injected, PBST pH 7.4, 37 C
T2 construct: also called hVISTA-ECD 6-His tag; human VISTA
T2 sequence (Q9H7M9 other isoform, or with tags, fused parts or gaps limits assumed): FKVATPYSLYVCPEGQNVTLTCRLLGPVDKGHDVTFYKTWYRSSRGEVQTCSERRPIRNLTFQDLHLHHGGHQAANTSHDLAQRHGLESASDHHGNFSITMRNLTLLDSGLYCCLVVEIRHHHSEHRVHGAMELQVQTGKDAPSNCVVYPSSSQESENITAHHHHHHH

[4] = molecular target: T2, monovalent hVISTA-ECD with …; test: SPR, mAb captured on Protein A chip, hVISTA injected, PBST pH 6.0, 37 C

T1 sequence (Q9H7M9 other isoform, or with tags, fused parts or gaps limits assumed): as above

B1: P1-069063 (antibody, human IgG1, kappa, V domains shown)
VH: EVQLVESGGGLVQPGKSLRLSCAASGFTLEDYAMHWVRQAPGKGLEWVSGINWNSAEIGYADSVKGRFTISRDNAKNSLYLQMNSLRTEDTALYYCAKVPGYSGGWIDADDEWGQGTMVTVSS
VL: not shown
notes: IgG1.3
A Kd [1] of 2.4 nM, a koff [1] of 0.0044 s⁻¹ and a kon [1] of 1.9e+06 M⁻¹ s⁻¹ were found for B1 in this work. For the same binder, the Kd [2] was 230 nM, the koff [2] was 0.027 s⁻¹ and the kon [2] was 120000 M⁻¹ s⁻¹.

B2: P1-069077 (antibody, human IgG1, kappa, V domains shown)
VH: EVQLVESGGGLVQPGKSLRLSCAASGFTLEDEAMHWVRQAPGKGLEWVSGINWNSDEIGYADSVKGRFTISRDNAKNSLYLQMNSLRTEDTALYYCAKVPGYSGGWIDAFDVWGQGTMVTVSS
VL: not shown
notes: IgG1.3
A Kd [1] of 0.19 nM, a koff [1] of 0.00012 s⁻¹ and a kon [1] of 630000 M⁻¹ s⁻¹ were found for B2 in this work. It also gave a Kd [2] of 31 nM, a koff [2] of 0.0019 s⁻¹ and a kon [2] of 60000 M⁻¹ s⁻¹.

B3: P1-069065 (antibody, human IgG1, kappa, V domains shown)
VH: EVQLVESGGGLVQPGKSLRLSCAASGFTLEDEAMHWVRQAPGKGLEWVSGINWNSDDIGYADSVKGRFTISRDNAKNSLYLQMNSLRTEDTALYYCAKVPGYSGGWIDAFDVWGQGTMVTVSS
VL: not shown
notes: IgG1.3
A Kd [1] of 0.38 nM, a koff [1] of 0.00022 s⁻¹ and a kon [1] of 570000 M⁻¹ s⁻¹ were found for B3 in this work. For the same binder, the Kd [2] was 39 nM, the koff [2] was 0.0023 s⁻¹ and the kon [2] was 59000 M⁻¹ s⁻¹.

B4: P1-069067 (antibody, human IgG1, kappa, V domains shown)
VH: EVQLVESGGGLVQPGKSLRLSCAASGFTLDDYAMHWVRQAPGKGLEWVSGINWNSEEIGYADSVKGRFTISRDNAKNSLYLQMNSLRTEDTALYYCAKVPGYSGGWIDADDEWGQGTMVTVSS
VL: not shown
notes: IgG1.3
A Kd [1] of 2.7 nM, a koff [1] of 0.0045 s⁻¹ and a kon [1] of 1.7e+06 M⁻¹ s⁻¹ were found for B4 in this work. For the same binder, the Kd [2] was 290 nM, the koff [2] was 0.027 s⁻¹ and the kon [2] was 100000 M⁻¹ s⁻¹.

B5: P1-069069 (antibody, human IgG1, kappa, V domains shown)
VH: EVQLVESGGGLVQPGKSLRLSCAASGFTLDDYAMHWVRQAPGKGLEWVSGINWNSEEIGYADSVKGRFTISRDNAKNSLYLQMNSLRTEDTALYYCAKVPGYSGGWIDADDVWGQGTMVTVSS
VL: not shown
notes: IgG1.3
A Kd [1] of 0.86 nM, a koff [1] of 0.0012 s⁻¹ and a kon [1] of 1.4e+06 M⁻¹ s⁻¹ were found for B5 in this work. It also gave a Kd [2] of 84 nM, a koff [2] of 0.0075 s⁻¹ and a kon [2] of 90000 M⁻¹ s⁻¹.

B6: P1-069075 (antibody, human IgG1, kappa, V domains shown)
VH: EVQLVESGGGLVQPGKSLRLSCAASGFTLEDYAMHWVRQAPGKGLEWVSGINWDSAEIGYADSVKGRFTISRDNAKNSLYLQMNSLRTEDTALYYCAKVPGYSHGWIDAEDVWGQGTMVTVSS
VL: not shown
notes: IgG1.3
A Kd [1] of 0.22 nM, a koff [1] of 0.00029 s⁻¹ and a kon [1] of 1.3e+06 M⁻¹ s⁻¹ were found for B6 in this work. For the same binder, the Kd [2] was 18 nM, the koff [2] was 0.0023 s⁻¹ and the kon [2] was 130000 M⁻¹ s⁻¹.

B7: P1-069071 (antibody, human IgG1, kappa, V domains shown)
VH: EVQLVESGGGLVQPGKSLRLSCAASGFTLEDEAMHWVRQAPGKGLEWVSGINWNSADIGYADSVKGRFTISRDNAKNSLYLQMNSLRTEDTALYYCAKVPGYSEGWIDAFDVWGQGTMVTVSS
VL: not shown
notes: IgG1.3
A Kd [1] of 0.73 nM, a koff [1] of 0.00051 s⁻¹ and a kon [1] of 700000 M⁻¹ s⁻¹ were found for B7 in this work. It also gave a Kd [2] of 93 nM, a koff [2] of 0.004 s⁻¹ and a kon [2] of 43000 M⁻¹ s⁻¹.

B8: P1-077877 (P1-068748 H32Y D57K) (antibody, V domains shown)
VH: QVQLVESGGGVVQPGRSLRLSCAASGFTFSHYAMHWVRQAPGKGLEWVAIIWYDGSNKDYADSVKGRFTISRDNSKNTLYLQMNSLRAEDTAVYYCARDSGFYDSYYFDYWGQGTLVTVSS
VL: EIVLTQSPATLSLSPGERATLSCRASQSVSSSYLAWYQQKPGQAPRLLIYDASNRATGIPARFSGSGSGTDFTLTISSLEPEDFATYYCQQYNSYPYTFGQGTKLEIK
notes: Reversion mutant of P1-068748 (Kabat names); captured on a Protein A chip
A Kd [3] of 270 nM, a koff [3] of 0.024 s⁻¹ and a kon [3] of 88000 M⁻¹ s⁻¹ were found for B8 in this work. It also gave a Kd [4] of 2.2 nM, a koff [4] of 0.0019 s⁻¹ and a kon [4] of 840000 M⁻¹ s⁻¹.

B9: P1-077889 (P1-068748 H32Y D58Y) (antibody, V domains shown)
VH: QVQLVESGGGVVQPGRSLRLSCAASGFTFSHYAMHWVRQAPGKGLEWVAIIWYDGSNDYYADSVKGRFTISRDNSKNTLYLQMNSLRAEDTAVYYCARDSGFYDSYYFDYWGQGTLVTVSS
VL: EIVLTQSPATLSLSPGERATLSCRASQSVSSSYLAWYQQKPGQAPRLLIYDASNRATGIPARFSGSGSGTDFTLTISSLEPEDFATYYCQQYNSYPYTFGQGTKLEIK
notes: as for B8
A Kd [3] of 2400 nM, a koff [3] of 0.073 s⁻¹ and a kon [3] of 31000 M⁻¹ s⁻¹ were found for B9 in this work. It also gave a Kd [4] of 130 nM, a koff [4] of 0.022 s⁻¹ and a kon [4] of 180000 M⁻¹ s⁻¹.

B10: P1-077887 (P1-068748 H31S D100S) (antibody, V domains shown)
VH: QVQLVESGGGVVQPGRSLRLSCAASGFTFSSHAMHWVRQAPGKGLEWVAIIWYDGSNDDYADSVKGRFTISRDNSKNTLYLQMNSLRAEDTAVYYCARDSGFYSSYYFDYWGQGTLVTVSS
VL: EIVLTQSPATLSLSPGERATLSCRASQSVSSSYLAWYQQKPGQAPRLLIYDASNRATGIPARFSGSGSGTDFTLTISSLEPEDFATYYCQQYNSYPYTFGQGTKLEIK
notes: as for B8
A Kd [3] of 3 nM, a koff [3] of 0.0027 s⁻¹ and a kon [3] of 910000 M⁻¹ s⁻¹ were found for B10 in this work. For the same binder, the Kd [4] was 0.52 nM, the koff [4] was 0.0011 s⁻¹ and the kon [4] was 2.1e+06 M⁻¹ s⁻¹.

B11: P1-077891 (P1-068748 H32Y D100S) (antibody, V domains shown)
VH: QVQLVESGGGVVQPGRSLRLSCAASGFTFSHYAMHWVRQAPGKGLEWVAIIWYDGSNDDYADSVKGRFTISRDNSKNTLYLQMNSLRAEDTAVYYCARDSGFYSSYYFDYWGQGTLVTVSS
VL: EIVLTQSPATLSLSPGERATLSCRASQSVSSSYLAWYQQKPGQAPRLLIYDASNRATGIPARFSGSGSGTDFTLTISSLEPEDFATYYCQQYNSYPYTFGQGTKLEIK
notes: as for B8
A Kd [3] of 2.1 nM, a koff [3] of 0.0025 s⁻¹ and a kon [3] of 1.2e+06 M⁻¹ s⁻¹ were found for B11 in this work. For the same binder, the Kd [4] was 0.36 nM, the koff [4] was 0.00099 s⁻¹ and the kon [4] was 2.7e+06 M⁻¹ s⁻¹.

B12: P1-077883 (P1-068748 H31S D57K) (antibody, V domains shown)
VH: QVQLVESGGGVVQPGRSLRLSCAASGFTFSSHAMHWVRQAPGKGLEWVAIIWYDGSNKDYADSVKGRFTISRDNSKNTLYLQMNSLRAEDTAVYYCARDSGFYDSYYFDYWGQGTLVTVSS
VL: EIVLTQSPATLSLSPGERATLSCRASQSVSSSYLAWYQQKPGQAPRLLIYDASNRATGIPARFSGSGSGTDFTLTISSLEPEDFATYYCQQYNSYPYTFGQGTKLEIK
notes: as for B8
A Kd [3] of 510 nM, a koff [3] of 0.035 s⁻¹ and a kon [3] of 68000 M⁻¹ s⁻¹ were found for B12 in this work. The Kd [4] was 6.7 nM, the koff [4] was 0.002 s⁻¹ and the kon [4] was 310000 M⁻¹ s⁻¹.

B13: P1-077893 (P1-068748 D57K D100S) (antibody, V domains shown)
VH: QVQLVESGGGVVQPGRSLRLSCAASGFTFSHHAMHWVRQAPGKGLEWVAIIWYDGSNKDYADSVKGRFTISRDNSKNTLYLQMNSLRAEDTAVYYCARDSGFYSSYYFDYWGQGTLVTVSS
VL: EIVLTQSPATLSLSPGERATLSCRASQSVSSSYLAWYQQKPGQAPRLLIYDASNRATGIPARFSGSGSGTDFTLTISSLEPEDFATYYCQQYNSYPYTFGQGTKLEIK
notes: Reversion mutant of P1-068748 (Kabat names); the antibody was captured on a Protein A chip, so an Fc was present
A Kd [3] of 4.7 nM, a koff [3] of 0.0019 s⁻¹ and a kon [3] of 400000 M⁻¹ s⁻¹ were found for B13 in this work. For the same binder, the Kd [4] was 0.43 nM, the koff [4] was 0.00058 s⁻¹ and the kon [4] was 1.4e+06 M⁻¹ s⁻¹.

B14: P1-077881 (P1-068748 D58Y D100S) (antibody, V domains shown)
VH: QVQLVESGGGVVQPGRSLRLSCAASGFTFSHHAMHWVRQAPGKGLEWVAIIWYDGSNDYYADSVKGRFTISRDNSKNTLYLQMNSLRAEDTAVYYCARDSGFYSSYYFDYWGQGTLVTVSS
VL: EIVLTQSPATLSLSPGERATLSCRASQSVSSSYLAWYQQKPGQAPRLLIYDASNRATGIPARFSGSGSGTDFTLTISSLEPEDFATYYCQQYNSYPYTFGQGTKLEIK
notes: as for B8
A Kd [3] of 22 nM, a koff [3] of 0.0036 s⁻¹ and a kon [3] of 160000 M⁻¹ s⁻¹ were found for B14 in this work. It also gave a Kd [4] of 53 nM, a koff [4] of 0.0034 s⁻¹ and a kon [4] of 62000 M⁻¹ s⁻¹.
